How the values were obtained:
[1] = Production of indigo using isolated enzymes (colour reaction with indole and NADPH); format: biochemical
Description: It is known that indigo is accessible from indole by microbial transformation (24-26). None of these microbial systems, however, contained a P450 monooxygenase. According to the invention, the catalytic activity of the pure enzyme for indole was first determined. The mutant F87L188A74 was mixed with indole. No color reaction could be observed. […] By adjustment of the pH of the reaction mixture to a value of approximately 11, 30 sec after addition of NADPH, the blue coloration was visible within a few seconds. […] The blue pigment was extracted using ethyl acetate and analyzed by TLC. The blue pigment again separated into a more rapidly running blue component and into a slower running red component. The Rf values and the absorption spectra were identical to those values of the extracts from the fermentation broth. The F87L188A74 mutant of P450 BM-3 is thus an indole hydroxylase.

[2] = Activity test for the indole hydroxylation (kinetic parameters); format: biochemical; settings: excess of purified enzyme and high indole concentration for the wild type
Procedure: The indole hydroxylation activity was tested in a solution which contained 8 μl of a 10-500 mM indole solution in DMSO, 850 μl of tris/HCl buffer (0.1 M, pH 8.2) and 0.6 nmol of P450 BM-3 wild type or mutant in a final volume of 1 ml. The mixture was preincubated for 9 min before the reaction was started by addition of 50 μl of an aqueous 1 mM solution of NADPH. The reaction was stopped after 20 sec by addition of 60 μl of 1.2 M KOH. Within 5 to 30 sec (under aerobic conditions), the enzyme products were converted completely into indigo [Δ^2,2′-biindoline]-3,3′-dione) and indirubin ([Δ^2,3′-biindoline]-2′,3-dione). The indigo production was determined by means of its absorption at 670 nm. […] A linear curve was obtained for indigo production in a reaction time of 40 sec using 0.6 nmol of wild type or P450 BM-3 mutant and 0.05 to 5.0 mM of indole. […] The formation of indirubin was neglected in the determination of the kinetic parameters. The NADPH consumption was determined at 340 nm and calculated as described (17) using an extinction coefficient of 6.2 mM^−1 cm^−1.
Pure samples of the wild-type enzyme P450 BM-3 and of the mutants Leu188Gln, Phe87Val, F87L188 and F87L188A74 were used for the determination of the kinetic parameters of indole hydroxylation.

B1: WT: wild-type cytochrome P450 monooxygenase BM-3 from Bacillus megaterium (SEQ ID NO:2) (protein, listed as Bacillus megaterium)
chain: TIKEMPQPKTFGELKNLPLLNTDKPVQALMKIADELGEIFKFEAPGRVTRYLSSQRLIKEACDESRFDKNLSQALKFVRDFAGDGLFTSWTHEKNWKKAHNILLPSFSQQAMKGYHAMMVDIAVQLVQKWERLNADEHIEVPEDMTRLTLDTIGLCGFNYRFNSFYRDQPHPFITSMVRALDEAMNKLQRANPDDPAYDENKRQFQEDIKVMNDLVDKIIADRKASGEQSDDLLTHMLNGKDPETGEPLDDENIRYQIITFLIAGHETTSGLLSFALYFLVKNPHVLQKAAEEAARVLVDPVPSYKQVKQLKYVGMVLNEALRLWPTAPAFSLYAKEDTVLGGEYPLEKGDELMVLIPQLHRDKTIWGDDVEEFRPERFENPSAIPQHAFKPFGNGQRACIGQQFALHEATLVLGMMLKHFDFEDHTNYELDIKETLTLKPEGFVVKAKSKKIPLGGIPSPSTEQSAKKVRKKAENAHNTPLLVLYGSNMGTAEGTARDLADIAMSKGFAPQVATLDSHAGNLPREGAVLIVTASYNGHPPDNAKQFVDWLDQASADEVKGVRYSVFGCGDKNWATTYQKVPAFIDETLAAKGAENIADRGEADASDDFEGTYEEWREHMWSDVAAYFNLDIENSEDNKSTLSLQFVDSAADMPLAKMHGAFSTNVVASKELQQPGSARSTRHLEIELPKEASYQEGDHLGVIPRNYEGIVNRVTARFGLDASQQIRLEAEEEKLAHLPLAKTVSVEELLQYVELQDPVTRTQLRAMAAKTVCPPHKVELEALLEKQAYKEQVLAKRLTMLELLEKYPACEMKFSEFIALLPSIRPRYYSISSSPRVDEKQASITVSVVSGEAWSGYGEYKGIASNYLAELQEGDTITCFISTPQSEFTLPKDPETPLIMVGPGTGVAPFRGFVQARKQLKEQGQSLGEAHLYFGCRSPHEDYLYQEELENAQSEGIITLHTAFSRMPNQPKTYVQHVMEQDGKKLIELLDQGAHFYICGDGSQMAPAVEATLMKSYADVHQVSEADARLWLQQLEEKGRYAKDVWAG
For B1, the “blue pigment formation with pure enzyme, indole and NADPH” value [1] was “always negative” and the “indole oxidation activity (in words)” value [2] was “not able to oxidize indole”.
